Reference: patent US8088387B2, “Method of targeting specific cell populations using cell-binding agent maytansinoid conjugates linked via a non-cleavable linker, said conjugates, and methods of making said conjugates” (Immunogen Inc., priority 2003, dated 2012)

Key:
[1] = test system: COLO 205 colon tumor xenografts; assay: COLO 205 colon tumor xenografts in SCID mice; assay type: in vivo
Procedure: (§1) Antibody conjugates with DM1 using the SMCC linker show anti-tumor efficacy against human tumor xenografts in mice (FIGS. 10A-C). […] In this experiment, one group of five animals bearing established subcutaneous tumors was treated with huC242-SMCC-DM1 at a dose of 150 μg/kg of conjugated DM1. Tumor sizes were measured periodically and graphed vs. time after tumor inoculation. […] In this experiment, three groups of five animals each bearing established subcutaneous SNU tumors were treated with huC242-SMCC-DM1 at doses of 15 μg/kg, 30 μg/kg, and 60 μg/kg of conjugated DM1, respectively. Tumor sizes were measured periodically and graphed vs. time after tumor inoculation.

[2] = acute toxicity test, single intravenous dose; assay type: in vivo, female CD-1 mice; conditions: single intravenous dose
Procedure: Maytansinoid conjugates prepared with non-cleavable linkers such as SMCC show an unexpected increased tolerability in mice compared with conjugates prepared with cleavable disulfide linkers. An acute toxicity test with a single intravenous dose was carried out in female CD-1 mice. A comparison of the tolerability of a huC242-SMCC-DM1 conjugate (non-cleavable) with huC242 conjugates prepared with linkers containing cleavable disulfide bonds was conducted by monitoring the death of mice (FIGS. 12A and B) and signs of toxicity (FIGS. 12C and D) over a series of four escalating doses of each conjugate. The maximum tolerated dose (MTD) for the SMCC-DM1 conjugate was greater than the highest dose tested (150 mg/kg) while the MTD for the disulfide-linked conjugate SPP-DM1 was in the range of 45-90 mg/kg.

[3] = Pharmacokinetic Studies of huC242-SPP-DM1 and huC242-SCC-DM1 conjugates inCD-1 Mice Plasma clearance curves and Pharmacokinetic parameters
Excerpt: Table printed on a drawing sheet, FIG. 11
Title: Pharmacokinetic Studies of huC242-SPP-DM1 and huC242-SCC-DM1 conjugates inCD-1 Mice Plasma clearance curves and Pharmacokinetic parameters
First reader's note: Rows without -DM1 (huC242-SMCC, huC242-SPP) appear to be the antibody component of the same conjugates, as in the plot legend; study in CD-1 mice.

[4] = test system: SNU16 human gastric tumor xenografts; assay: SNU16 human gastric tumor xenografts in SCID mice; assay type: in vivo
Procedure: as §1

[5] = test system: Namalwa cells; assay: cell destroying activity, antigen-negative cells (bystander study); assay type: cell-based
Excerpt: (§2) An additional aspect of conjugates prepared with non-cleavable linkers compared to conjugates that have cleavable disulfide linkers is the absence of activity toward antigen-negative cells when in close proximity to antigen-positive cells, termed here the bystander effect. That is, the conjugates prepared with non-cleavable linkers have minimal bystander activity. […] This minimal bystander activity of the non-cleavable conjugate, as measured in this in vitro assay, may contribute to the increased tolerability of conjugate with non-cleavable linkers observed in acute toxicity studies.

[6] = test system: COLO 205 cell line; assay: cell destroying activity, antigen-positive cells (bystander study); assay type: cell-based, human; conditions: COLO 205 cultured separately
Excerpt: as §2

[7] = test system: SKBR3 cells; assay: continuous exposure clonogenic assay, antigen-positive cells; assay type: cell-based, human
Excerpt: (§3) Cell-binding agent maytansinoid conjugates of the invention can be evaluated for their ability to suppress proliferation of various cell lines in vitro. For example, cell lines such as the human colon carcinoma line COLO205, the human melanoma cell line A375, the human myeloid leukemia cell line HL60, the human breast carcinoma line SKBR3, or the human epidermoid carcinoma cell line KB can be used for the assessment of cytotoxicity of these conjugates. Cells to be evaluated can be exposed to the compounds for 24 hours and the surviving fractions of cells measured in direct assays by known methods. (See, e.g. Goldmacher et al., 135 J. Immunol. 3648-3651 (1985), and Goldmacher et al., 102 J. Cell Biol. 1312-1319 (1986).) IC50 values can then be calculated from the results of the assays.
(§4) The in vitro cytotoxicity and specificity of the huC242-SMCC-DM1 conjugate were evaluated using a continuous exposure clonogenic assay.

[8] = plasma clearance of conjugates; assay type: in vivo
Excerpt: This is in sharp contrast to plasma clearance of conjugates prepared with relatively labile disulfide bonds such as huC242-SPP-DM1. […] The non-cleavable SMCC linkage is therefore much more resistant to maytansinoid-linker cleavage activities present in vivo than the SPP-DM1 conjugate. […] This increased exposure could have substantial impact on drug efficacy in some cases.

[9] = test system: A375 cells; assay: continuous exposure clonogenic assay, antigen-negative cells; assay type: cell-based, human
Excerpt: as §3, §4

[10] = test system: COLO205 cells; assay: cell cycle arrest by flow cytometry; assay type: cell-based, human; conditions: 30 hours post-treatment
Procedure: Maytansinoid conjugates are thought to impart their cell destroying activity through the inhibition of microtubule polymerization. This inhibition of microtubule polymerization leads to an arrest of the cell cycle principally at G2/M. The antigen-dependent arrest of cells at G2/M by antibody-maytansinoid conjugates can be monitored by flow cytometry analysis (FIG. 13). Treatment of COLO205 cells with huC242-SPP-DM1 or huC242-SMCC-DM1 conjugate results in a complete G2/M arrest by 6-10 hours. […] The difference in the durability of the activity of these two conjugates is also reflected in percentage of dead cells at the 30 hour time point, as judged by a dye exclusion assay using trypan blue.

[11] = in vitro clonogenic / indirect cytotoxicity assays, cell line not given; assay type: cell-based; conditions: clonogenic (FIG. 6A-C) and indirect cytotoxicity assays (FIG. 7)
Excerpt: as §3

[12] = test system: COLO 205 cells; assay: indirect FACS binding assay on COLO 205 cells; set-up: species or system human; conditions: 5×10^3 cells per well, three hour primary incubation on ice
Procedure: The inventors carried out binding and cytotoxicity studies on the huC242-non-S-containing non-cleavable linker-DM1 conjugate. First, the binding affinities of huC242 antibody, huC242-SMNP-DM3, and huC242-non-S-containing non-cleavable linker-DM1 to COLO 205 cells were compared. 5×10^3 cells per well were used, with a three hour primary incubation on ice. The huC242-non-S-containing non-cleavable linker-DM1 conjugate had about a two-fold higher apparent dissociation constant than free antibody (see FIG. 23).

[13] = 150 μg/kg of conjugated DM1, of five animals

B1: huC242-SMCC-DM1: huC242 antibody linked to maytansinoid DM1 via the non-cleavable linker SMCC (conjugate, chains of the INN, looked up)
VH: QVQLVQSGAEVKKPGETVKISCKASDYTFTYYGMNWVKQAPGQGLKWMGWIDTTTGEPTYAQKFQGRIAFSLETSASTAYLQIKSLKSEDTATYFCARRGPYNWYFDVWGQGTTVTVSS
VL: DIVMTQSPLSVPVTPGEPVSISCRSSKSLLHSNGNTYLYWFLQRPGQSPQLLIYRMSNLVSGVPDRFSGSGSGTAFTLRISRVEAEDVGVYYCLQHLEYPFTFGPGTKLELK
modifications: DM1 via SMCC linker
tumor response ([1]; 150 μg/kg of conjugated DM1, five animals, established subcutaneous tumors): All five treated animals had a complete remission | animals that relapsed after complete remission [1, 13]: three | animals tumor-free until termination of the experiment [1, 13]: two | effect on mouse body weight ([1]; at conjugate doses with anti-tumor activity): no effect on mouse body weight | time some mice remained free of detectable tumors post-treatment ([1]; sentence citing FIG. 10B, text prints COLO 205): over 2 months | tumor response (sentence citing FIG. 10B) ([1]; text prints COLO 205 colon carcinoma xenografts): complete regression of tumors | survival / lethal toxicity ([2]; at 150 mg/kg): all mice in the SMCC-DM1 treated group survived | maximum tolerated dose (MTD) ([2]; female CD-1 mice): > 150 mg/kg | AUC | [3]: 40374.2 µg·h/mL | CL | [3]: 7.2 mL/day/kg | Vss | [3]: 0.1125 L/kg | t1/2 | hour [3]: 13.26 days | antitumor effect ([4]; 15, 30 and 60 μg/kg of conjugated DM1, established subcutaneous SNU tumors): dose-dependent antitumor effect | effect on mouse body weight ([4]; at active conjugate concentration): no effect on mouse body weight | cell destroying activity ([5]; Namalwa cultured separately): no activity | bystander cell destroying activity toward Namalwa cells ([5]; co-cultures of COLO 205 and Namalwa cells): No cell destroying activity | cell destroying activity [6]: potent cell destroying activity | IC50 [7]: 0.0035 nM | increase in overall maytansinoid exposure (AUC) compared to SPP-DM1 conjugates ([8]; area under the curve): ~5 fold | half-life for clearance ([8]; plasma, conjugate, FIG. 11): approximately 320 hours | fold less sensitive than SKBR3 cells ([9]; antigen negative A375 vs antigen positive SKBR3): about 800 fold | IC50 ([9]; antigen-negative A375 cells, continuous exposure clonogenic assay): > 3 nM | durability of cell cycle arrest [10]: do not escape from the cell cycle block | potency compared to conjugates prepared with disulfide-containing linkers [11]: equal or greater potency | Kd [12]: 0.552 nM
